Data on five molecules can be found in patent US20130064836A1 (Novartis, published 2013).

For assay [1], the target named is T1, human complement C5 protein (human, UniProt P01031 19-673; P01031 678-1676, Beta and alpha chains are joined by disulfide bonds. C5 was biotinylated in some assays.). In words: SET (MSD), IgG, 2nd measurement. As for the experimental part: (§1) In order to improve the sensitivity and accuracy of the SET method, it was transferred from classical ELISA to ECL based technology (Haenel et al., Anal Biochem 339:182-184 (2005)).
(§2) 1 mg/ml goat-anti-human (Fab)₂ fragment specific antibodies (Dianova) were labelled with ECL Sulfo-TAG™ NHS-Ester (Meso Scale Discovery, Gaithersburg, Md., USA) according to the manufacturer's instructions. The experiments were carried out in polypropylene microliter plates and PBS pH 7.4 with 0.5% BSA and 0.02% Tween 20 as assay buffer. […] Wells without antigen were used to determine Bmax values; wells containing neither antigen nor IgG were used to determine background. After addition of e.g. 10 pM IgG (final concentration in 60 μl final volume), the mixture was incubated over night at RT. The applied IgG concentration was similar to or below the expected KD.
(§3) Streptavidin MSD plates were coated with 0.2 μg/ml biotinylated human C5 (30 μl/well) and blocked with 5% BSA in PBS. Subsequently the equilibrated samples were transferred to those plates (30 μl per well) and incubated for 20 min. After washing, 30 μl/well of the ECL Sulfo-tag labeled detection antibody (goat anti-human (Fab)₂) in a final dilution of 1:1500 was added to the MSD plate and incubated for 30 min on an Eppendorf shaker (700 rpm).

The target in assay [2] is T1, human complement C5 protein. In words: SET (MSD), IgG, 1st measurement. The protocol: as §1, §2, §3
Assay [3] has the same target.
Assay [4] shares this target. As to the kind of experiment: SPR (Biacore), IgG captured via anti-human Fc, C5 injected. The protocol: (§4) A CM4 chip was coated with 50 μg/ml goat anti-human Fc antibody (500-2000 RU) in 10 mM acetate buffer, pH 4.5, using standard EDC-NHS amine coupling chemistry. Each anti-human C5 IgG was captured on the chip in HBS-EP buffer at constant flow rate of 10 μl/min for a contact time leading to a ligand density around 20 RU. […] Each cycle was completed with two regeneration steps with phosphoric acid. All running conditions were carried out at 25° C. in 1× HBS-EP buffer. The resulting signals were adjusted by double referencing, substracting the refraction index values from the reference flow cell and the binding step with no analyte. Data were collected at 10 Hz and analyzed using the Biacore T100 Evaluation Software Version 1.1 (GE). This program uses a global fitting analysis method for the determination of rate and affinity constants for each interaction. […]
Background: Surface plasmon resonance follows binding to a sensor surface in real time, without labels.

For assay [5] the target is unchanged. This is another data set of the same source.
Assay [6] has the same target. The source holds these as a separate data set.
For assay [7] the target is unchanged. The source holds these as a separate data set.
The target in assay [8] is cynomolgus C5 (Macaca fascicularis) (cynomolgus (Macaca fascicularis)).
The target of assay [9] is T1, human complement C5 protein. As to the kind of experiment: cell-based or functional assay.
Assay [10] addresses T2, cynomolgus C5 (Macaca fascicularis) (cynomolgus (Macaca fascicularis), Beta and alpha chains are joined by disulfide bonds; the protein is a serum glycoprotein.).
T2 construct: also called cyno C5; cynoC5
T2 beta: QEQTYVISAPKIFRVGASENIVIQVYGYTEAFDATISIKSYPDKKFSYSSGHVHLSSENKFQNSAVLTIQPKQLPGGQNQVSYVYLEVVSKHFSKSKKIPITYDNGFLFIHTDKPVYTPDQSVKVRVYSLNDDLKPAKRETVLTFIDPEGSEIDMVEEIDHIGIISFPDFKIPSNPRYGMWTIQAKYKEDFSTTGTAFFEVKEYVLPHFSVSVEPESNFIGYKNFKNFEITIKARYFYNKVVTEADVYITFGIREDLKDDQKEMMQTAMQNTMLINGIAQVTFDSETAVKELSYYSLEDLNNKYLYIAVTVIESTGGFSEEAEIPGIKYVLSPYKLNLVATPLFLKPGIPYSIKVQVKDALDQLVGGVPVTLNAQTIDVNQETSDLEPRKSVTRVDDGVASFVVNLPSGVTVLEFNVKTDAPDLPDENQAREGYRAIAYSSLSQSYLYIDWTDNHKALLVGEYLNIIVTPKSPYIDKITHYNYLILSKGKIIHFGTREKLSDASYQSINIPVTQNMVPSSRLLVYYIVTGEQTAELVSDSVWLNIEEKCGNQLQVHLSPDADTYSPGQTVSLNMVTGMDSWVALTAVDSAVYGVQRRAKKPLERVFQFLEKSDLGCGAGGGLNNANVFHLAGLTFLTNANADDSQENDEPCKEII
T2 alpha: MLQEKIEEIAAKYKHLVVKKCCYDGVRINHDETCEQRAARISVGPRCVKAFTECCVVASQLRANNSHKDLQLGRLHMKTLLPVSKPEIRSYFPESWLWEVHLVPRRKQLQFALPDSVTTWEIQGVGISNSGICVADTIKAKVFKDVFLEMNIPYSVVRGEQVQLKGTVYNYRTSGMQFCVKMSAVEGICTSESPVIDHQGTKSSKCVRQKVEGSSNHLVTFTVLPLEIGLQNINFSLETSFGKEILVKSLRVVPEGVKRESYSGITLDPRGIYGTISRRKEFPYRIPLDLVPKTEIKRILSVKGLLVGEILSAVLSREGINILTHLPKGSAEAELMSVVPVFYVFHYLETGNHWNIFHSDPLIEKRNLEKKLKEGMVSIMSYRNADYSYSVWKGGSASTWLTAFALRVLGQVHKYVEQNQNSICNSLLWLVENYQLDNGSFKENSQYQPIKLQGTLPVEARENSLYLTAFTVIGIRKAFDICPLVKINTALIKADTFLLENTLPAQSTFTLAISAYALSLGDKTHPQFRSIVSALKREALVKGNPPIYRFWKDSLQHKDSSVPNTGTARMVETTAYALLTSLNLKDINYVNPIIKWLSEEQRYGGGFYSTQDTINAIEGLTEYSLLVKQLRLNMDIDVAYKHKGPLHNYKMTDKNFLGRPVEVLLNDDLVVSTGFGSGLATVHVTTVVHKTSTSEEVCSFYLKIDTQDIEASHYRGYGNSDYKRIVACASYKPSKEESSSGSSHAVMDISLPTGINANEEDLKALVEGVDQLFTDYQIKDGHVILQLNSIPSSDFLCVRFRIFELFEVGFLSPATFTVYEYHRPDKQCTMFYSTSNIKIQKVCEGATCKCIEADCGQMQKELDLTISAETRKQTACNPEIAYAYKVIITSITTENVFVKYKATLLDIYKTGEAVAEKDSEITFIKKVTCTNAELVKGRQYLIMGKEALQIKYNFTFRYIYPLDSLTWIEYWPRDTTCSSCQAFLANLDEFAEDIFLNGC
In words: SET (MSD), IgG, 2nd measurement. The protocol:
as §1, §2, §3

Assay [11] concerns the target T2, cynomolgus C5 (Macaca fascicularis). In words: SET (MSD), IgG, 1st measurement. As for the experimental part: as §1, §2, §3
Assay [12] addresses T1, human complement C5 protein. In words: cell-based or functional assay. This is another data set of the same source.
Assay [13] addresses T2, cynomolgus C5 (Macaca fascicularis). In words: SPR (Biacore), IgG captured via anti-human Fc, C5 injected. The protocol:
as §4

For assay [14] the target is unchanged. As to the kind of experiment: cell-based or functional assay.
The target in assay [15] is T1, human complement C5 protein. In words: cell-based or functional assay. This is another data set of the same source.
Assay [16] deals with T3, human complement C3 (human, UniProt P01024 23-667; P01024 672-1663).
T3 construct: Counter target in the ELISAs, coated directly or biotinylated; also called human C3
In words: solution ELISA: Fab with biotinylated antigen on NeutrAvidin plate, His-tag detection [huC3 panel]. The protocol:
Fabs were incubated with biotinylated antigen on a Neutravidin plate and detected via the histidin tag.

Numbering of substitutions follows the chain as printed. Like-named read-outs stand apart in the source and are kept apart here.

The Kd is the concentration at which binding is half-saturated. A higher Kd goes with weaker binding. What is called koff is the first-order rate constant of dissociation. What is called kon is the second-order rate constant of association. Read a low kon as slow association.

T3 sequence (P01024 23-667 limits assumed, chain 1 of 2): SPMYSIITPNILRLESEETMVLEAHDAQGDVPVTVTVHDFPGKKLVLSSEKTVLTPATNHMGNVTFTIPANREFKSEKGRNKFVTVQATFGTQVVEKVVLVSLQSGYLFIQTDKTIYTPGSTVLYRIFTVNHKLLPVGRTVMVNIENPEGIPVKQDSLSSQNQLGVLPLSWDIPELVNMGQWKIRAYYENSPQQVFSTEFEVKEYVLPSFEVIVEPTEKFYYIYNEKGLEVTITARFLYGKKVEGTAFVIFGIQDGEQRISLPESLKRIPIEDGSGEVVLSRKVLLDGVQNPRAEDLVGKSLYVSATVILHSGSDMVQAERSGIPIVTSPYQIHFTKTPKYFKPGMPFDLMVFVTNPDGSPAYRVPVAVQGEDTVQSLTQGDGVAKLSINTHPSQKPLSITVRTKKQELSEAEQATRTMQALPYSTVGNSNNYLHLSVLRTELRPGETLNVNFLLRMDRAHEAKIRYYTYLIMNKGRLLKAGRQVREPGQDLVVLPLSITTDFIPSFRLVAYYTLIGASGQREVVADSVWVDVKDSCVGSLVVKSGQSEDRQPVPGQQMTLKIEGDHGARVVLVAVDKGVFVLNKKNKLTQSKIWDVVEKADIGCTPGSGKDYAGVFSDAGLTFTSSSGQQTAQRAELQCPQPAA
T3 sequence (P01024 672-1663 limits assumed, chain 2 of 2): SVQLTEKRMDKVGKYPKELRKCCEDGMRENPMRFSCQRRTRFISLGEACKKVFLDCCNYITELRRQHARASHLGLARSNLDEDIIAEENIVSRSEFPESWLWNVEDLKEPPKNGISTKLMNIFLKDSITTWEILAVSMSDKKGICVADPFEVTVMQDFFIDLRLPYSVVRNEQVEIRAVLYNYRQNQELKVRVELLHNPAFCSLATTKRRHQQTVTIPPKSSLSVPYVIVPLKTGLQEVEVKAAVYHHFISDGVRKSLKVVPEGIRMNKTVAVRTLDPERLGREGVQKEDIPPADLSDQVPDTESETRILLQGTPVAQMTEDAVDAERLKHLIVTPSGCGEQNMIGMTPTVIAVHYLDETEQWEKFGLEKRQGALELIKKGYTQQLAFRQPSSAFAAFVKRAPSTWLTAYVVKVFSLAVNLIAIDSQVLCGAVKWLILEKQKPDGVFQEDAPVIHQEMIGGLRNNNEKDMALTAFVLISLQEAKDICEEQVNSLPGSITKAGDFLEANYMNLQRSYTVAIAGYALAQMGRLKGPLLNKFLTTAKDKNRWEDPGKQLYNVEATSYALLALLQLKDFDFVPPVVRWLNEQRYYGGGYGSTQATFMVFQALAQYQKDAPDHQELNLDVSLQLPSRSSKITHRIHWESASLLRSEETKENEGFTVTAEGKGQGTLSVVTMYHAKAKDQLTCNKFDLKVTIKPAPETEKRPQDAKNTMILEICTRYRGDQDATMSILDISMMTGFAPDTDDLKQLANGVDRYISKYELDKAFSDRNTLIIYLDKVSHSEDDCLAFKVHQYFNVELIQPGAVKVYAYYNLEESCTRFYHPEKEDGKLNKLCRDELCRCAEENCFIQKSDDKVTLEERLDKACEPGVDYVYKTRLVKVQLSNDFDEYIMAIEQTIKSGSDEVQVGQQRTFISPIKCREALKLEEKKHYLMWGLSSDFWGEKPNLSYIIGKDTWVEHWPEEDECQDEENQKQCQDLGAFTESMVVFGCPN

For 5G1.1 (antibody), the figures for the Kd in assay [1], in assay [2] and in assay [4] were 0.019 nM, 0.024 nM and 0.056 nM, respectively. The molecule also gave an IC50; hemolysis AP, 100 pM human C5 [panel a] in assay [3] of 0.14 nM. The IC50; hemolysis AP, 100 pM human C5 [panel c] in assay [3] was determined as 0.205 nM. Further, the IC50 (read off the curve); C5a ELISA on AP hemolysis supernatants, 20% human serum [panel d] in assay [5] came out at 20 nM. In assay [5], the IC50 (read off the curve); hemolysis AP, 20% human serum [panel c] worked out at 50 nM. The same molecule had an IC50 (read off the curve); hemolysis AP, 100 pM human C5 [panel b] in [6] of 0.09 nM. The molecule further showed an IC50; hemolysis AP, 100 pM human C5 [panel i] in assay [7] of 0.0582 nM. Also, in assay [8], the IC50; hemolysis AP, 100 pM cyno C5 in 20% human C5-depleted serum [panel a] was 1.71 nM.

B1: MOR08114 (antibody, human IgG1, lambda, L234A L235A, V domains shown)
VH: EVQLVQSGAEVKKPGESLKISCKGSGYSFTSYYIGWVRQMPGKGLEWMGIIDPTDSQTAYSPSFQGQVTISADKSISTAYLQWSSLKASDTAMYYCARYMMRGFDHWGQGTLVTVSS
VL: SYELTQPPSVSVAPGQTARISCSGDSLGDYYAYWYQQKPGQAPVLVIYKDNNRPSGIPERFSGSNSGNTATLTISGTQAEDEADYYCQTWDTGESGVFGGGTKLTVLG
notes: Germlined final IgG, human IgG1AA format; also called Antibody 8114
Consider B1, for which the “IC50; hemolysis CP, 20% human serum” value in [9] is 34.1 nM. Further, the Kd in [1] came out at 0.002 nM; in assay [10] it was 0.004 nM; in assay [2], 0.001 nM; in assay [11], 0.005 nM; in assay [4], 0.015 nM; in assay [13], 0.031 nM. In [12], the “IC50 (read off the curve); hemolysis AP, 100 pM human C5 [panel c]” value was roughly 0.02 nM. Further, the koff came out at 3.12e-05 s⁻¹ in assay [4] and 3.13e-05 s⁻¹ in [13]. Besides, the results for the kon in assay [4] and in assay [13] were 2.09e+06 M⁻¹ s⁻¹ and 1.06e+06 M⁻¹ s⁻¹, respectively. Moreover, the “IC50 (read off the curve); hemolysis CP, 5% cyno serum” value in assay [14] is roughly 30 nM. Also, in [15], the “IC50 (read off the curve); hemolysis AP, 20% human serum [panel c]” value is roughly 50 nM.

B2: MOR07872 (Fab, V domains shown)
VH: B1 VH with E1Q, T54S, Q57H, A59T
VL: DIELTQPPSVSVAPGQTARISCSGDSLGDYYAYWYQQKPGQAPVLVIYKDNNRPSGIPERFSGSNSGNTATLTISGTQAEDEADYYCQTWDILPHGLVFGGGTKLTVLG
notes: light CS or A
For B2, in [16], the binding result is reported as “no binding (tested: 100 nM)”.

B3: MOR07873 (Fab, V domains shown)
VH: B1 VH with E1Q, T54S, Q57H, A59T
VL: B2 VL with T89A, D91T, I92D, L93S, H95T
notes: light CS or A
B3: the binding result in [16] is recorded as “no binding (tested: 100 nM)”.

B4: MOR08111 (antibody, human IgG1, lambda, L234A L235A, V domains shown)
VH: EVTLKESGPALVKPTQTLTLTCTFSGFSLSTSGGGVSWIRQPPGKALEWLANIDDADIKDYSPSLKSRLTISKDTSKNQVVLTMTNMDPVDTATYYCARGPYGFDSWGQGTLVTVSS
VL: ESALTQPASVSGSPGQSITISCTGTSSDIGTYNYVSWYQQHPGKAPKLMIYDDSNRPSGVSNRFSGSKSGNTASLTISGLQAEDEADYYCQSYDSQSIVFGGGTKLTVLG
notes: Germlined final IgG, human IgG1AA format
As for B4, the “IC50; hemolysis CP, 20% human serum” value in assay [9] came out at 21.5 nM. Besides, the Kd worked out at 0.003 nM in assay [1]; 0.017 nM in assay [10]; 0.005 nM in assay [2]; 0.014 nM in [11]; 0.031 nM in assay [4]; 0.144 nM in assay [13]. The “IC50 (read off the curve); hemolysis AP, 100 pM human C5 [panel a]” value in [12] was roughly 0.1 nM. For the same molecule, the results for the koff in assay [4] and in assay [13] were 3.07e-05 s⁻¹ and 0.000128 s⁻¹, respectively. Also, the figures for the kon in assay [4] and in [13] were 1e+06 M⁻¹ s⁻¹ and 891000 M⁻¹ s⁻¹, respectively. Also, in assay [14], the “IC50 (read off the curve); hemolysis CP, 5% cyno serum” value is roughly 20 nM.
